We go through one substance from publication PMC11607802.

For the test, the target named is Butelase AY (Butelase 1 V237A/T238Y), zymogenic form before activation (Clitoria ternatea). The test is described as follows: SEC.

Regarding “Butelase AY (Butelase 1 V237A/T238Y), zymogenic form before activation (enzyme)”, the stoichiometry N came out at 2.
